One molecule from patent US20040204561A1 (published 2004) can be followed below.

Ends that are not written are not given here. bbDTPA = DTPA chelating ligand bonded through a carbon of its ethylene backbone

Data set [1] concerns the molecule itself. The experiment in a line: self-association, observation of solutions. From the text:
First, solutions of EP 1272L (FW=2,243 Da) were concentrated and purified by centrifugation in a filter device with a nominal molecular weight limit of 300,000 Da. The formation of high molecular weight aggregates allowed EP1272L to be retained by the filter device. […] Third, SEC-LS column retention and light scattering measurements of EP1272L were consistent with a large species having a mass distribution of 4×10⁶ to 13×10⁶ Da, and a hydrodynamic radius in the range of 155 nm to 210 nm.

The target in data set [2] is T1, streptavidin (on magnetic beads) (UniProt P22629 37-163, limits assumed).
T1 construct: also called streptavidin beads; streptavidin-coated beads
The experiment in a line: capture on streptavidin magnetic beads, gadolinium ICP. On the procedure: The three EP1595/EP1272 formulations, one EP1596/EP1272 formulation, and an EP1272 formulation were assayed for affinity to streptavidin magnetic beads. Each sample was diluted so as to maintain a constant ratio of biotinylated peptide and streptavidin binding sites in the assay. Solutions without biotin were treated as though they contained 0.5% EP1595. After several rinses the magnetic beads were digested in acid. The extent of capture was quantified by gadolinium ICP.

T1 sequence (P22629 37-163 limits assumed): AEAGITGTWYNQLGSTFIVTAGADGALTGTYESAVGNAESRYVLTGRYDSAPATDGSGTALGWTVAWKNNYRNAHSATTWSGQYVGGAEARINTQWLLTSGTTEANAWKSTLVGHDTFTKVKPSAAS

B1: EP1272L (peptide)
peptide: bbDTPA-GAEAEAKAKAEAEAKAK
modifications: also: bbDTPA complexed to Gd(III)
notes: also called EP1272L aggregates alone; EP1272 formulation
On to B1, for which the binding result in data set [1] and in data set [2] was “binds” in each case.
